The values that follow come from patent US20230416825A1.

Where two headings read alike, the source gives them in different places.

In experiment [1] the target is Recombinant human KLK5 (Genentech) (human) (UniProt Q9Y337). In words: cell-based or functional assay.
Experiment [2] shares this target. In words: cell-based or functional assay. The source holds these as a separate data set.

Sequence of UniProt Q9Y337 (Q9Y337 67-293 limits assumed, form in doubt): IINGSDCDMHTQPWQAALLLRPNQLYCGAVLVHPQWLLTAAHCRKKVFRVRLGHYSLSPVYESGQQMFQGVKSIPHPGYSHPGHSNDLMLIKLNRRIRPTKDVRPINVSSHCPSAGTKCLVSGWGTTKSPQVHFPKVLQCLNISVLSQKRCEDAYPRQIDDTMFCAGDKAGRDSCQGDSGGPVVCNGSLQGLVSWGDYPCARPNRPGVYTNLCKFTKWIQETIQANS

In the case of “mAb1108 (Monoclonal Mouse IgG2b Clone #193318, R & D Systems, Minneapolis, MN) (antibody)”, in experiment [1], the IC50, LC/MS assay of KLK5 (0.5 nM) cleavage of pro-KLK1 is 0.34 nM; the IC50, LC/MS assay of KLK5 (5 nM) cleavage of pro-KLK7 (15 nM) turned out to be 1.86 nM; the direct KLK5 activity assay at 20, 10, 5 and 2.5 nM KLK5: reduction in cleavage of the fluorescent peptide substrate is 30%; the maximum KLK5 inhibition, LC/MS assay of KLK5 (0.5 nM) cleavage of pro-KLK1 is 40%.

B1: SPINK9 (I20-C86.C22S.H48R.M49E)-Fc (Fc fusion, not shown: a dimerising Fc or GST)
chain: IESAKQTKQMVDCSHYKKLPPGQQRFCHREYDPICGSDGKTYKNDCFFCSKVKKTDGTLKFVHFGKC
Regarding B1, in experiment [2], the IC50, LC/MS assay of KLK5 (0.5 nM) cleavage of pro-KLK1 is 0.58 nM and the IC50, LC/MS assay of KLK5 (5 nM) cleavage of pro-KLK7 (15 nM) turned out to be 1.13 nM.
